According to patent US20240335553A1:

What was measured:
[1] = molecular target: cation-independent mannose-6-phosphate receptor (CI-MPR), recombinant human IGF-II R (human) (UniProt P11717); experiment: SPR, CI-MPR immobilized, 1:1 Langmuir global fit
[2] = molecular target: cation-independent mannose-6-phosphate receptor (CI-MPR), recombinant human IGF-II R (human) (UniProt P11717); experiment: SPR, CI-MPR immobilized, antibody as analyte, 2-fold dilutions from 500 nM
[3] = molecular target: cation-independent mannose-6-phosphate receptor (CI-MPR), recombinant human IGF-II R (human) (UniProt P11717); experiment: SPR (Biacore T200), CI-MPR immobilized on a CM5 chip, antibody as analyte in 2-fold dilutions from 500 nM to 0.98 nM
[4] = molecular target: cation-independent mannose-6-phosphate receptor (CI-MPR), recombinant human IGF-II R (human) (UniProt P11717); experiment: SPR, CI-MPR immobilized
[5] = molecular target: cation-independent mannose-6-phosphate receptor (CI-MPR), recombinant human IGF-II R (human) (UniProt P11717); experiment: SPR, CI-MPR immobilized, steady-state fitting
[6] = molecular target: epidermal growth factor receptor (EGFR) (human) (UniProt P00533); experiment: cell-based or functional assay

| Substance | Kd [1] [nM] | Kd [2] [nM] | Kd [3] [nM] | fold affinity against glycoform (9) [4] [fold] | Kd [5] [nM] | degradation of total EGFR in HepG2 cells (Western blot, 48 h, 10 nM antibody) [6] [%] | fold affinity against glycoform (3) [4] [fold] |
| --- | --- | --- | --- | --- | --- | --- | --- |
| cetuximab M6P-glycoform 10 (cetuximab carrying the bis-phosphorylated heptasaccharide N-glycan) (antibody) | 29.6 | – | 29.6 | 2 | – | – | – |
| trastuzumab M6P-glycoform 6 (trastuzumab carrying the M6P-Man3GlcNAc2 glycan) (antibody) | – | – | – | – | 700 | – | – |
| cetuximab M6P-glycoform 9 (cetuximab carrying the M6P tetrasaccharide glycan at the Fc domain) (antibody) | 70.3 | 72.4 | 70.3 | – | – | 57 | – |

Continued, values first:

| Kd [1] [nM] | Kd [2] [nM] | Kd [3] [nM] | fold affinity against glycoform (9) [4] [fold] | Kd [5] [nM] | degradation of total EGFR in HepG2 cells (Western blot, 48 h, 10 nM antibody) [6] [%] | fold affinity against glycoform (3) [4] [fold] | Substance |
| --- | --- | --- | --- | --- | --- | --- | --- |
| 28.6 | 30.2 | 28.6 | – | – | – | – | trastuzumab M6P-glycoform 3 (trastuzumab carrying the M6P tetrasaccharide glycan at the Fc domain) (antibody) |
| 5.4 | – | 5.4 | – | – | – | 4 | trastuzumab M6P-glycoform 7 (trastuzumab carrying the bis-phosphorylated heptasaccharide moiety) (antibody) |
